The values below come from doi:10.1101/2025.07.06.663161 (bioRxiv, 2025).

The data set deals with the molecule itself. In words: atomic force microscopy.

B1: Recombinant wild-type Cdc19, Strep-tagged (SUMO tag cleaved off) (natural protein)
chain: MSRLERLTSLNVVAGSDLRRTSIIGTIGPKTNNPETLVALRKAGLNIVRMNFSHGSYEYHKSVIDNARKSEELYPGRPLAIALDTKGPEIRTGTTTNDVDYPIPPNHEMIFTTDDKYAKACDDKIMYVDYKNITKVISAGRIIYVDDGVLSFQVLEVVDDKTLKVKALNAGKICSHKGVNLPGTDVDLPALSEKDKEDLRFGVKNGVHMVFASFIRTANDVLTIREVLGEQGKDVKIIVKIENQQGVNNFDEILKVTDGVMVARGDLGIEIPAPEVLAVQKKLIAKSNLAGKPVICATQMLESMTYNPRPTRAEVSDVGNAILDGADCVMLSGETAKGNYPINAVTTMAETAVIAEQAIAYLPNYDDMRNCTPKPTSTTETVAASAVAAVFEQKAKAIIVLSTSGTTPRLVSKYRPNCPIILVTRCPRAARFSHLYRGVFPFVFEKEPVSDWTDDVEARINFGIEKAKEFGILKKGDTYVSIQGFKAGAGHSNTLQVSTV
With B1, the binding result is given as “binds”.

B2: Recombinant phosphomimicking Cdc19-3E (S56E, S70E, S175E), Strep-tagged (SUMO tag cleaved off) (natural protein)
chain: MSRLERLTSLNVVAGSDLRRTSIIGTIGPKTNNPETLVALRKAGLNIVRMNFSHGEYEYHKSVIDNARKEEELYPGRPLAIALDTKGPEIRTGTTTNDVDYPIPPNHEMIFTTDDKYAKACDDKIMYVDYKNITKVISAGRIIYVDDGVLSFQVLEVVDDKTLKVKALNAGKICEHKGVNLPGTDVDLPALSEKDKEDLRFGVKNGVHMVFASFIRTANDVLTIREVLGEQGKDVKIIVKIENQQGVNNFDEILKVTDGVMVARGDLGIEIPAPEVLAVQKKLIAKSNLAGKPVICATQMLESMTYNPRPTRAEVSDVGNAILDGADCVMLSGETAKGNYPINAVTTMAETAVIAEQAIAYLPNYDDMRNCTPKPTSTTETVAASAVAAVFEQKAKAIIVLSTSGTTPRLVSKYRPNCPIILVTRCPRAARFSHLYRGVFPFVFEKEPVSDWTDDVEARINFGIEKAKEFGILKKGDTYVSIQGFKAGAGHSNTLQVSTV
Take B2: the binding result is listed as “binds”.
